# Article PMC5421877, “SOCS3 inhibits the pathological effects of IL-22 in non-melanoma skin tumor-derived keratinocytes” (Oncotarget, 2017)
# B1: IL-22: cytokine stimulus, R&D Systems (protein, UniProt Q9GZX6 34-179, looked up)
# Interleukin-22: APISSHCRLDKSNFQQPYITNRTFMLAKEASLADNNTDVRLIGEKLFHGVSMSERCYLMKQVLNFTLEEVLFPQSDRFQPYMQEVVPFLARLSNRLSTCHIEGDDLHIQRNVQKLKDTVKKLGESGEIKAIGELDLLFMSLRNACI
# Assays:
# [1] = tested on: STAT3 phosphorylation in healthy keratinocytes; test: Western blot of STAT3 phosphorylation in healthy keratinocytes (IL-22); type: cell-based, human; settings: IL-22 time course, no peptide, n = 3
# Method: (§1) Figure 5 KIR-ESS peptide inhibits IL-22-induced phosphorylation of STAT3 and Erk in healthy and SCC-derived keratinocytes (A) Protein extracts obtained from healthy keratinocytes (n = 3) pre-treated or not with 15 μM (left panel) or 75 μM (right panel), KIR, KIR-ESS and control (Ctrl1 or Ctrl2) peptides, and, then, […], were subjected to WB analysis to detect STAT3 (Tyr705), Erk and MEK phosphorylation. Filters were probed with anti-STAT3, -Erk and –MEK Abs (top). (B) Protein extracts obtained from healthy keratinocytes (n = 3) pre-treated or not with 75 μM KIR-ESS and control (Ctrl1) peptides, and, then, stimulated or not with IL-22 for 10 min, were subjected to immunoprecipitation for IL-22R1 and Jak1, and then analysed by WB to detect phosphorylated and unphosphorylated forms of the proteins. (C) Unphosphorylated and phosphorylated forms of STAT1 (Tyr701) and STAT3 (Tyr705) were monitored in keratinocytes treated with IFN-γ for 15 min by WB analysis (bottom). In all experimental groups, filters were stripped and re-probed with β-actin Ab. (D) Protein extracts were obtained from CAL27 (left panel) or CAL33 (right panel) lines treated or not with 75 μM peptides in presence of IL-22 or IFN-γ. WB was performed to detect basal and phosphorylated STAT1, STAT3 and Erk. D.I. ratio indicates the densitometric intensity of phosphorylated/unphosphorylated target protein. […]
# [2] = tested on: Erk1/2 phosphorylation in healthy keratinocytes; test: Western blot of Erk1/2 phosphorylation in healthy keratinocytes (IL-22); type: cell-based, human; settings: IL-22 time course, no peptide, n = 3
# Method: as §1
molecule,measurement,setting,value
B1,STAT3 activation,[1],"culminated with STAT3, MEK1/2 and Erk1/2 activation"
same,Erk1/2 activation,[2],"culminated with STAT3, MEK1/2 and Erk1/2 activation"
